# Test results: patent US20140235701, “NGF APTAMER AND APPLICATION THEREOF” (RIBOMIC INC., published 2014)
# T1: NT-3 (neurotrophin-3) (Homo sapiens, UniProt P20783 P20783:139-257)
# T1 sequence: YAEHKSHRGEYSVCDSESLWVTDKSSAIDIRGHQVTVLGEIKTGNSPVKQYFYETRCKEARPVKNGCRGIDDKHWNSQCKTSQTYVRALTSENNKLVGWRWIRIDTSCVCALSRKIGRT
# T2: NT-4 (neurotrophin-4) (Homo sapiens, UniProt P34130 P34130:81-210)
# T2 sequence: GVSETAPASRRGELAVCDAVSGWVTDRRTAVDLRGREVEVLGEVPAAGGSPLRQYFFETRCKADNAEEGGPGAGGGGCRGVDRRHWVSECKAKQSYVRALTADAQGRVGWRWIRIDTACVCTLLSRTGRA
# Legend:
# Details in all cases: tags: R&D Systems; chain copies: 2
# [1] = target: T3, NGF (nerve growth factor) (Homo sapiens, UniProt P01138 P01138:122-241); assay: cell_activity; neurite; TF-1 >0.1
# [2] = target: T3, NGF (nerve growth factor); assay: cell_activity; neurite; TF-1 >1
# NT-3 (neurotrophin-3) = target: T1, NT-3 (neurotrophin-3); assay: SPR; scarcely bound
# Method: (§1) The binding activity of these shortened forms to NGF and NT-3 was measured by the surface plasmon resonance method. For the measurement method, BIAcore2000 manufactured by BIAcore was used and CM5 reactive with amino group was used as a sensorchip, as shown in Example 1. The protein was immobilized in the same manner as in Example 1 by using ethyl-3-carbodiimide hydrochloride and N-hydroxysuccinimide. […] After protein immobilization, blocking with ethanolamine-HCl was performed. The amount of immobilized NGF and NT-3 was 3,000-4,000 RU and 3,000-5,000 RU, respectively. The aptamer for an analyte was prepared to 0.15 μM-0.5 μM. The running buffer and regeneration solution were the same as those in Example 1. NT-3 was immobilized on FC2, and NGF on FC3, and the final sensorgram was obtained by subtracting the results of FC1.
# (§2) Then, the aptamers were subjected to shortening to 40 mer in the same manner as with consensus secondary structure 1. […] NT-4 was measured in the same manner as in NT-3.
# (§3) The shortened sequences were measured for the binding to NGF, NT-3, NT-4 by the surface plasmon resonance method. The measurement was performed in the same manner as in Example 13.
# NT-4 (neurotrophin-4) [3] = target: T2, NT-4 (neurotrophin-4); assay: SPR; scarcely bound
# Method: as §1, §2, §3
# NT-4 (neurotrophin-4) [4] = target: T2, NT-4 (neurotrophin-4); assay: cell_activity; TF-1
# From the text: Using TF-1 cells, whether NGF aptamer inhibits BDNF, NT-3, NT-4 was examined. Human receptor genes (TrkB, TrkC, p75) for respective neurotrophic factors were introduced into TF-1 cells (ATCC Number: CRL-2003), which is a human erythroleukemic cell line, by using a retrovirus vector to give cells that highly express these receptors stably. TF-1 cells introduced with TrkB and p75 were used for the evaluation of inhibitory activity against BDNF, TF-1 cells introduced with TrkC and p75 were used for the evaluation against NT-3, and TF-1 cells introduced with TrkB alone were used for the evaluation against NT-4. These cells were suspended in an RPMI-1640 medium containing 20% fetal bovine serum, and seeded in a white 96 well flat-bottom plate at 1000 cells (50 μL) per well. Thereto was added a mixed solution 50 μL of human BDNF (final concentration 0.074 nM) or NT-3 (final concentration 0.074 nM) or NT-4 (final concentration 0.071 nM) and the aptamer (final concentration 1 μM-0.01 nM), which had been pre-reacted at room temperature for 30 min in a serum-free RPMI-1640 medium, 3 days later, 100 μL of CellTiter-Glo reagent for CellTiter-Glo Luminescent Cell Viability Assay (manufactured by Promega) was added to each well, chemiluminescence was measured by a microplate reader. With the amount of luminescence per well obtained by the addition of BDNF or NT-3 or NT-4 alone and culture of the cells for 3 days as inhibitory activity 0%, and that of the well obtained by culture for 3 days without addition of BDNF or NT-3 or NT-4 as inhibitory activity 100%, the inhibitory activity of the aptamer was calculated from the amount of luminescence per well obtained by culturing with the addition of BDNF or NT-3 or NT-4 and the aptamer in mixture. When the inhibitory activity was 0 or below, ‘0%’ is indicated. The 50% inhibitory concentration (IC₅₀) was determined from the concentrations at two, above and below points sandwiching the 50% inhibitory activity. An IC₅₀ value indicated as “>X” means that the inhibitory activity was not more than 50% when the indicated concentration X was the maximum measured concentration. N.D. means not measured.
# [5] = target: T3, NGF (nerve growth factor); assay: cell_activity; neurite; TF-1 <0.1
# [6] = target: T3, NGF (nerve growth factor); assay: SPR; more than 40N control
# T3 sequence (P01138 122-241, one chain of several): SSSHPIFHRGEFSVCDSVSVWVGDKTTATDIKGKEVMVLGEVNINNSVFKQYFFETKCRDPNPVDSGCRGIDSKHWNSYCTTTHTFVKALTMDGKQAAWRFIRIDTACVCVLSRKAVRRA
Binder,IC50 [2],binding result (NT-3 (neurotrophin-3)),binding result (NT-4 (neurotrophin-4) [3]),IC50 [5],other results
"GGGUCCUGGAUAAGAGUUUCCGUCUCGUAUCCUGUUACCC (ssRNA, as 82(1) except 2'-OMe U33) [SEQ ID NO: 82(14)]",–,–,–,–,IC50 [1]: 0.294 nM
"GGGUCCUGGAUAAGAGUUUCCGUCUCGUAUCCUGUUACCC (ssRNA, as 82(1) except 2'-OMe U4,C6,U11,C20,C21,C26,U28,U30,C31,C32,U35,C38-40) [SEQ ID NO: 82(19)]",–,–,–,–,IC50 [1]: 0.291 nM
"GGGUCCUGACGUAUAGUUUCCGUCUGUAUGUCUGUUACCC (ssRNA, 2'-F C/U, dA, 2'-OH G) [SEQ ID NO: 101]",0.994 nM,–,–,–,–
"GGGUCCUGAUGUCAAGUUUCCGUCUUGAUGUCUGUUACCC (ssRNA, 2'-F C/U, dA, 2'-OH G) [SEQ ID NO: 104]",0.682 nM,no binding,no binding,–,–
"GGGUCCUGUGGAAGAGUUUCCGUCUCGUCCACUGUUACCC (ssRNA, 2'-F C/U, dA, 2'-OH G) [SEQ ID NO: 89]",0.959 nM,–,–,–,–
"GGGUCCUGUUCAAGAGUUUCCGUCUCGUGAACUGUUACCC (ssRNA, 2'-OMe C38-40; other C/U 2'-F, G 2'-OH, dA; 5',3' idT) [SEQ ID NO: 88(1)]",–,–,–,0.241 nM,IC50 (NT-4 (neurotrophin-4) [4]): < 100 nM
"GGGUCCUGUUCAAGAGUUUCCGUCUCGUGAACUGUUACCC (ssRNA, 2'-OMe G1-3,C38-40; other C/U 2'-F, G 2'-OH, dA; 5',3' idT) [SEQ ID NO: 88(2)]",–,–,–,0.241 nM,–
"GGGUCCUGUUCAAGAGUUUCCGUCUCGUGAACUGUUACCC (ssRNA, 2'-OMe G1-3,U4,C6,G14,G16,C21,G22,U23,C26,G27,U28,C32,U35,C38-40; other C/U 2'-F, G 2'-OH, dA; 5',3' idT) [SEQ ID NO: 88(3)]",–,–,–,0.106 nM,–
"GGGUCCUGUGGAAGAGUUUCCGUCUCGUCCACUGUUACCC (ssRNA, 2'-OMe G1-3,C6,G14,G16,C21,G22,U23,C26,G27,U28,C32,U35,C38-40; other C/U 2'-F, G 2'-OH, dA; 5',3' idT) [SEQ ID NO: 89(2)]",–,–,–,0.103 nM,–
"GGGUCCUGUGGAAGAGUUUCCGUCUCGUCCACUGUUACCC (ssRNA, as 89(2) plus 2'-OMe G10,G11) [SEQ ID NO: 89(3)]",–,–,–,0.122 nM,–
"GGGUCCUGUGGAAGAGUUUCCGUCUCGUCCACUGUUACCC (ssRNA, as 89(2) plus 2'-OMe U9,G10,G11,C29,C30) [SEQ ID NO: 89(4)]",–,–,–,< 0.1 nM,IC50 (NT-4 (neurotrophin-4) [4]): 271 nM
"GGGUCCUGUUCAAGAGUUUCCGUCUCGUGAACUGUUACCC (ssRNA, as 88(3) plus 2'-OMe U9,U10,C11,G29) [SEQ ID NO: 88(4)]",–,–,–,0.111 nM,IC50 (NT-4 (neurotrophin-4) [4]): 300 nM
"GGGUCCUGUGGAAGAGUUUCCGUCUCGUCCACUGUUACCC (ssRNA, 2'-OMe G1-3,C38-40; other C/U 2'-F, G 2'-OH, dA; 5',3' idT) [SEQ ID NO: 89(1)]",–,–,–,0.246 nM,–
"GGGUCCUGAGCAAGAGUUUCCGUCUCAUGCUCUGUUACCC (ssRNA, 2'-F C/U, dA, 2'-OH G) [SEQ ID NO: 102]",0.908 nM,–,–,–,–
"GGGUCCUGCUGCGUAGUUUCCGUCUGCGUGGUUGUUACCC (ssRNA, 2'-F C/U, dA, 2'-OH G) [SEQ ID NO: 103]",0.766 nM,no binding,no binding,–,–
"GGGUCCUGCUGUGUAGUUUCCGUCUGCAUGGUUGUUACCC (ssRNA, 2'-F C/U, dA, 2'-OH G) [SEQ ID NO: 113]",0.96 nM,no binding,no binding,–,–
"GGGUCCUGCUGCGAAGUUUCCGUCUUCGUGGCUGUUACCC (ssRNA, 2'-F C/U, dA, 2'-OH G) [SEQ ID NO: 107]",0.967 nM,no binding,no binding,–,–
"GGGUCCUGCUGCGUAGUUUCCUUCUGCGUGGCUGUUACCC (ssRNA, 2'-F C/U, dA, 2'-OH G) [SEQ ID NO: 109]",0.687 nM,no binding,no binding,–,–
"GGGUCCUGUUGCGUAGUUUCCGUCUGCGUGACUGUUACCC (ssRNA, 2'-F C/U, dA, 2'-OH G) [SEQ ID NO: 108]",0.403 nM,no binding,no binding,–,–
"GGGUCCUGCUGCGUAGUUUCCGUCUGCGUAGCUGUUACCC (ssRNA, 2'-F C/U, dA, 2'-OH G) [SEQ ID NO: 106]",0.77 nM,no binding,no binding,–,–
"GGGUCCUGCCGCGUAGUUUCCGUCUGCGUGGCUGUUACCC (ssRNA, 2'-F C/U, dA, 2'-OH G) [SEQ ID NO: 110]",0.999 nM,no binding,no binding,–,–
"SEQ ID NO: 59 (ssRNA, 2'-F C/U, dA, 2'-OH G) RNA: GGGAGAACUUCGACCAGAAGUUUGCACAUCCUGCUGCGUAGUUUCCUUCUGCGUGGUUGUUAUGUGCGCAUACAUGGAUCCUC",–,–,–,–,binding result [6]: binds
"SEQ ID NO: 61 (ssRNA, 2'-F C/U, dA, 2'-OH G) RNA: GGGAGAACUUCGACCAGAAGUUAGCACAUCCUGCUGCGUAGUUUCCGUCUUCGCGGUUGUUAUGUGCGCAUACAUGGAUCCUC",–,–,–,–,binding result [6]: binds
"SEQ ID NO: 60 (ssRNA, 2'-F C/U, dA, 2'-OH G) RNA: GGGAGAACUUCGACCAGAAGUUGGCACAUCCUGCUGCAGAGUUUCCGUCUCGGUGGCUGUUAUGUGCGCAUACAUGGAUCCUC",–,–,–,–,binding result [6]: binds
"GGGUCCUGCUCAAGAGUUUCCGUCUCGUGGGCUGUUACCC (ssRNA, 2'-OMe G1-3,C38-40; other C/U 2'-F, G 2'-OH, dA; 5',3' idT) [SEQ ID NO: 87(1)]",–,–,–,0.173 nM,IC50 (NT-4 (neurotrophin-4) [4]): < 100 nM
"GGGUCCUGCUCAAGAGUUUCCGUCUCGUGGGCUGUUACCC (ssRNA, as 87(2) plus 2'-OMe C9,U10,C11,G29-31) [SEQ ID NO: 87(4)]",–,–,–,0.113 nM,–
"GGGUCCUGCUCAAGAGUUUCCGUCUCGUGGGCUGUUACCC (ssRNA, as 87(2) plus 2'-OMe G29-31) [SEQ ID NO: 87(3)]",–,–,–,0.118 nM,–
"GGGUCCUGCUCAAGAGUUUCCGUCUCGUGGGCUGUUACCC (ssRNA, 2'-OMe G1-3,U4,C6,G14,G16,C21,G22,U23,C26,G27,U28,C32,U35,C38-40; other C/U 2'-F, G 2'-OH, dA; 5',3' idT) [SEQ ID NO: 87(2)]",–,–,–,0.107 nM,–
"GGGUCCUGUUGCUAAGUUUCCGUCUUAGUGACUGUUACCC (ssRNA, 2'-F C/U, dA, 2'-OH G) [SEQ ID NO: 105]",0.444 nM,no binding,no binding,–,–
